# Patent US20110311569A1
# Like-named read-outs stand apart in the source and are kept apart here.
# Experiments:
# Assay in all cases: cell-based or functional assay
# [1] = target: HIV-1 SF162 Env (parental) (HIV-1 isolate SF162) (UniProt P19551)
# [2] = target: JR-FL Env N160K/E168K mutant (HIV-1 isolate JR-FL)
# [3] = target: SF162 Env with CRF01_AE consensus V3 region (HIV-1 isolate SF162; HIV-1 CRF01_AE consensus) (UniProt P19551)
# [4] = target: SF162 Env with CRF02_AG consensus V3 region (HIV-1 isolate SF162; HIV-1 CRF02_AG consensus) (UniProt P19551)
# [5] = target: SF162 Env with GKV at positions 167-169 (HIV-1 isolate SF162) (UniProt P19551)
# [6] = target: SF162 Env with V3 substitution A22T (HIV-1 isolate SF162) (UniProt P19551)
# [7] = target: SF162 Env with V3 substitution D25E (HIV-1 isolate SF162) (UniProt P19551)
# [8] = target: SF162 Env with V3 substitution T13H (HIV-1 isolate SF162) (UniProt P19551)
# [9] = target: SF162 Env with clade A1 consensus V3 region (HIV-1 isolate SF162; HIV-1 clade A1 consensus) (UniProt P19551)
# [10] = target: SF162 Env with clade B consensus V3 region (identical to that of JR-FL) (HIV-1 isolate SF162; HIV-1 clade B consensus) (UniProt P19551)
# [11] = target: SF162 Env with clade C consensus V3 region (HIV-1 isolate SF162; HIV-1 clade C consensus) (UniProt P19551)
# [12] = target: SF162 Env with clade F consensus V3 region (HIV-1 isolate SF162; HIV-1 clade F consensus) (UniProt P19551)
# [13] = target: SF162 Env with clade H consensus V3 region (HIV-1 isolate SF162; HIV-1 clade H consensus) (UniProt P19551)
# [14] = target: HIV-1 JR-FL Env (parental) (HIV-1 isolate JR-FL)
# [15] = target: HIV-1 SF162 Env (parental) (HIV-1 isolate SF162) (UniProt P19551); remark: listed apart in the source
# [16] = target: JR-FL Env with GK at positions 167-168 (HIV-1 isolate JR-FL)
# [17] = target: SF162 Env with GKV at positions 167-169 (HIV-1 isolate SF162) (UniProt P19551); remark: listed apart in the source
# [18] = target: SF162 Env with NI at positions 160-161 (HIV-1 isolate SF162) (UniProt P19551)
# [19] = target: SF162 Env with NI at positions 160-161 and GKV at positions 167-169 (HIV-1 isolate SF162) (UniProt P19551)
# [20] = target: SF162 Env with clade B consensus V3 region (identical to that of JR-FL) (HIV-1 isolate SF162; HIV-1 clade B consensus) (UniProt P19551); remark: listed apart in the source
# [21] = target: chimeric JR-FL Env with the V1/V2 domain of SF162 (HIV-1 isolate JR-FL; HIV-1 isolate SF162) (UniProt P19551)
# [22] = target: chimeric SF162 Env with the V1/V2 domain of JR-FL (HIV-1 isolate SF162; HIV-1 isolate JR-FL) (UniProt P19551)
substance,measurement,setting,value
monoclonal antibody 2909,ND50 (pseudovirus neutralization),[1],5.8e-05 µg/mL
same,ND50 (pseudovirus neutralization),[2],< 0.04 ng/mL
same,neutralization potency relative to 2F5,[2],> 140 fold
same,neutralization potency relative to 2G12,[2],> 500 fold
same,neutralization potency relative to IgG-b12,[2],20 fold
same,neutralization potency relative to a pool of potent V3-specific mAbs,[2],4000 fold
same,percent neutralization at 20 ng/ml (% neutralization at 20 ng/ml),[2],> 99
same,ND50 (pseudovirus neutralization),[3],> 20 µg/mL
same,ND50 ratio (fold increase in ND50 over the SF162 sequence),[3],> 344000 fold
same,ND50 (pseudovirus neutralization),[4],0.037 µg/mL
same,ND50 ratio (fold increase in ND50 over the SF162 sequence),[4],637 fold
same,"fold increase in 2909 concentration required for 50% neutralization, over SF162",[5],> 1000 fold
same,fold increase in ND50 over SF162,[6],46 fold
same,fold increase in ND50 over SF162,[7],2.3 fold
same,fold increase in ND50 over SF162,[8],8.3 fold
same,ND50 (pseudovirus neutralization),[9],0.0064 µg/mL
same,ND50 ratio (fold increase in ND50 over the SF162 sequence),[9],110 fold
same,ND50 (pseudovirus neutralization),[10],0.051 µg/mL
same,ND50 ratio (fold increase in ND50 over the SF162 sequence),[10],879 fold
same,ND50 (pseudovirus neutralization),[11],0.0048 µg/mL
same,ND50 ratio (fold increase in ND50 over the SF162 sequence),[11],83 fold
same,ND50 (pseudovirus neutralization),[12],0.0076 µg/mL
same,ND50 ratio (fold increase in ND50 over the SF162 sequence),[12],131 fold
same,ND50 (pseudovirus neutralization),[13],0.17 µg/mL
same,ND50 ratio (fold increase in ND50 over the SF162 sequence),[13],2930 fold
same,ND50 (pseudovirus neutralization),[14],> 10 µg/mL
same,ND50 (pseudovirus neutralization),[15],0.00049 µg/mL
same,ND50 (pseudovirus neutralization),[16],> 10 µg/mL
same,ND50 (pseudovirus neutralization),[17],0.54 µg/mL
same,ND50 (pseudovirus neutralization),[18],> 10 µg/mL
same,ND50 (pseudovirus neutralization),[19],> 10 µg/mL
same,ND50 (pseudovirus neutralization),[20],0.145 µg/mL
same,ND50 (pseudovirus neutralization),[21],0.065 µg/mL
same,ND50 (pseudovirus neutralization),[22],> 10 µg/mL
